Reference: patent publication US20150051136A1 (US Dept. of Health and Human Services, published 2015)

Biological target: T1, sRAGE^CHO(N25T/N81T) (human, UniProt Q15109 26-340)
T1 construct: also called sRAGE (N25T/N81T); N25T/N81T mutant
Test: BIAcore SPR, sRAGE amine-coupled to CM5 chip, S100B as analyte, steady state model

T1 sequence (Q15109 other isoform, or with tags, fused parts or gaps N25T N81T N25T N81T): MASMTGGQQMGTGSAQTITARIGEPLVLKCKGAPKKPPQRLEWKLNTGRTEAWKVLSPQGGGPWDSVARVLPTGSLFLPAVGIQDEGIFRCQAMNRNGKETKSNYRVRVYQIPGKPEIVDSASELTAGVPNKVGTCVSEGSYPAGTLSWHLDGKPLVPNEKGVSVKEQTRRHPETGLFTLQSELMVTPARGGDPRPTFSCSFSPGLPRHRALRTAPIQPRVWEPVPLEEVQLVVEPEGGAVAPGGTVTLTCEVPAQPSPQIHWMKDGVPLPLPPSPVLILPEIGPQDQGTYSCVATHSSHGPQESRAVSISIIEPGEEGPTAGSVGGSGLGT

Kd: 13.6 nM
B1: S100B (ligand)
chain: MSELEKAMVALIDVFHQYSGREGDKHKLKKSELKELINNELSHFLEEIKEQEVVDKVMETLDNDGDGECDFQEFMAFVAMVTTACHEFFEHE
